PMC6269214 (Biochimica et biophysica acta. Proteins and proteomics, 2018)

Tests used:
[1] = target: the molecule itself; test: SEC
[2] = target: the molecule itself; test: SEC-MALS

B1: cavsol (full-length, soluble human caveolin-1 variant gen-2d) (other)
chain: MSGGKYVDSEGHLYTVPIREQGNIYKPNNKAMADELSEKQVYDAHTKEIDLVNRDPKHLNDDVVKIDFEDVIAEPEGTHSFDGIWKASFTTFTVTKYWFYRLLSAHEGIPMALSRGVEVAQVSDHHIRADDPCIKSFLIEIQCISRVYSIYVHTVCDPLFEAVGKIFSNVRINLQKEI
- stoichiometry N [1]: 24 monomers
- stoichiometry N [2]: ~90 cav monomers
